In the RNAGym collection of RNA variant scans (doi:10.1093/molbev/msab373):

B1: Azoarcus group I ribozyme (parent)
chain: GUGCCUUGCGCCGGGAAACCACGCAAGGGAUGGUGUCAAAUUCGGCGAAACCUAAGCGCCCGCCCGGGCGUAUGGCAACGCCGAGCCAAGCUUCGGCGCCUGCGCCGAUGAAGGUGUAGAGACUAGACGGCACCCACCUAAGGCAAACGCUAUGGUGAAGGCAUAGUCCAGGGAGUGGCGAAAGUCACACAAACCGG

Variants of: B1
Test: reverse-splicing fitness (ratio to wild type); higher = more active; in vitro selection; Mg2+ level not given
In short: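 An in vitro group I ribozyme library with randomized positions was T7-transcribed and gel-purified. In triplicate, 10 pmol RNA in EPPS pH 7.5 was reacted with 50 pmoles of a 30-nt RNA substrate for 1 h at 37 °C across several added MgCl2 levels (1–48 mM), then stopped with EDTA. Products were reverse transcribed from a substrate-complementary primer, PCR-amplified and sequenced (HiSeq 4000). Fitness is a variant's read proportion after selection over that before, normalised to wild type.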

Row | Variant | reverse-splicing fitness
1 | GUGCCUUGCGCCGGGAAACCACGCAAGGGAUGGUGUCAAAUUCGGCGAAACCUAAGCGCCCGCCCGGGCGUAUGGCAACGCUGAGCCAAGCUUCGGCGCCUGCGCCGAUGAAGGUGUAGGGACUAGACGGCACCCACCUAAGGCCAACGUUAUGGUGAAGGCAUAGUCUAGGGAGUGGCGAAAGUCACACAAACCGG [C82U A120G A145C C150U C169U] | 0.00884
2 | GUGCCUUGCGCCGGGAAACCACGCAAGGGAUGGUGUCAAAUUCGGCGAAACCUAAGCGCCCGCCCGGGCGUAUGGCAACGCUGAGCCAAGCUUCGGCGCCUGCGCCGAUGAAGGUGUAGGGACUAGACGGCACCCACCUAAGGCCAACGUUAUGGUGAAGGCAUAGUCAAGGGAGUGGCGAAAGUCACACAAACCGG [C82U A120G A145C C150U C169A] | 0.00913
3 | GUGCCUUGCGCCGGGAAACCACGCAAGGGAUGGUGUCAAAUUCGGCGAAACCUAAGCGCCCGCCCGGGCGUAUGGCAACGCUGAGCCAAGCUUCGGCGCCUGCGCCGAUGAAGGUGUAGGGACUAGACGGCACCCACCUAAGGCCAACGUUAUGGUGAAGGCAUAGUCGAGGGAGUGGCGAAAGUCACACAAACCGG [C82U A120G A145C C150U C169G] | 0.00988
4 | GUGCCUUGCGCCGGGAAACCACGCAAGGGAUGGUGUCAAAUUCGGCGAAACCUAAGCGCCCGCCCGGGCGUAUGGCAACGCUGAGCCAAGCUUCGGCGCCUGCGCCGAUGAAGGUGUAGGGACUAGACGGCACCCACCUAAGGCCAACGGUAUGGUGAAGGCAUAGUCAAGGGAGGGGCGAAAGUCACACAAACCGG [C82U A120G A145C C150G C169A U176G] | 0.00406
5 | GUGCCUUGCGCCGGGAAACCACGCAAGGGAUGGUGUCAAAUUCGGCGAAACCUAAGCGCCCGCCCGGGCGUAUGGCAACGCUGAGCCAAGCUUCGGCGCCUGCGCCGAUGAAGGUGUAGGGACUAGACGGCACCCACCUAAGGCCAACGUUAUGGUGAAGGCAUAGUCGAGGGAGAGGCGAAAGUCACACAAACCGG [C82U A120G A145C C150U C169G U176A] | 0.0197
6 | GUGCCUUGCGCCGGGAAACCACGCAAGGGAUGGUGUCAAAUUCGGCGAAACCUAAGCGCCCGCCCGGGCGUAUGGCAACGCUGAGCCAAGCUUCGGCGCCUGCGCCGAUGAAGGUGUAGGGACUAGACGGCACCCACCUAAGGCCAACGUUAUGGUGAAGGCAUAGUCGAGGGAGCGGCGAAAGUCACACAAACCGG [C82U A120G A145C C150U C169G U176C] | 0.0111
7 | GUGCCUUGCGCCGGGAAACCACGCAAGGGAUGGUGUCAAAUUCGGCGAAACCUAAGCGCCCGCCCGGGCGUAUGGCAACGCUGAGCCAAGCUUCGGCGCCUGCGCCGAUGAAGGUGUAGGGACUAGACGGCACCCACCUAAGGCCAACGUUAUGGUGAAGGCAUAGUCGAGGGAGGGGCGAAAGUCACACAAACCGG [C82U A120G A145C C150U C169G U176G] | 0.0041
8 | GUGCCUUGCGCCGGGAAACCACGCAAGGGAUGGUGUCAAAUUCGGCGAAACCUAAGCGCCCGCCCGGGCGUAUGGCAACGCUGAGCCAAGCUUCGGCGCCUGCGCCGAUGAAGGUGUAGGGACUAGACGGCACCCACCUAAGGCCAACGCUAUGGUGAAGGCAUAGUCAAGGGAGAGGCGAAAGUCACACAAACCGG [C82U A120G A145C C169A U176A] | 0.00959
9 | GUGCCUUGCGCCGGGAAACCACGCAAGGGAUGGUGUCAAAUUCGGCGAAACCUAAGCGCCCGCCCGGGCGUAUGGCAACGCUGAGCCAAGCUUCGGCGCCUGCGCCGAUGAAGGUGUAGGGACUAGACGGCACCCACCUAAGGCCAACGGUAUGGUGAAGGCAUAGUCGAGGGAGCGGCGAAAGUCACACAAACCGG [C82U A120G A145C C150G C169G U176C] | 0.00713
10 | GUGCCUUGCGCCGGGAAACCACGCAAGGGAUGGUGUCAAAUUCGGCGAAACCUAAGCGCCCGCCCGGGCGUAUGGCAACGCUGAGCCAAGCUUCGGCGCCUGCGCCGAUGAAGGUGUAGGGACUAGACGGCACCCACCUAAGGCCAACGGUAUGGUGAAGGCAUAGUCGAGGGAGGGGCGAAAGUCACACAAACCGG [C82U A120G A145C C150G C169G U176G] | 0.00336
11 | GUGCCUUGCGCCGGGAAACCACGCAAGGGAUGGUGUCAAAUUCGGCGAAACCUAAGCGCCCGCCCGGGCGUAUGGCAACGCUGAGCCAAGCUUCGGCGCCUGCGCCGAUGAAGGUGUAGGGACUAGACGGCACCCACCUAAGGCCAACGGUAUGGUGAAGGCAUAGUCGAGGGAGAGGCGAAAGUCACACAAACCGG [C82U A120G A145C C150G C169G U176A] | 0.00838
12 | GUGCCUUGCGCCGGGAAACCACGCAAGGGAUGGUGUCAAAUUCGGCGAAACCUAAGCGCCCGCCCGGGCGUAUGGCAACGCUGAGCCAAGCUUCGGCGCCUGCGCCGAUGAAGGUGUAGGGACUAGACGGCACCCACCUAAGGCCAACGGUAUGGUGAAGGCAUAGUCUAGGGAGGGGCGAAAGUCACACAAACCGG [C82U A120G A145C C150G C169U U176G] | 0.00443
13 | GUGCCUUGCGCCGGGAAACCACGCAAGGGAUGGUGUCAAAUUCGGCGAAACCUAAGCGCCCGCCCGGGCGUAUGGCAACGCUGAGCCAAGCUUCGGCGCCUGCGCCGAUGAAGGUGUAGGGACUAGACGGCACCCACCUAAGGCCAACGGUAUGGUGAAGGCAUAGUCUAGGGAGCGGCGAAAGUCACACAAACCGG [C82U A120G A145C C150G C169U U176C] | 0.0104
14 | GUGCCUUGCGCCGGGAAACCACGCAAGGGAUGGUGUCAAAUUCGGCGAAACCUAAGCGCCCGCCCGGGCGUAUGGCAACGCUGAGCCAAGCUUCGGCGCCUGCGCCGAUGAAGGUGUAGGGACUAGACGGCACCCACCUAAGGCCAACGGUAUGGUGAAGGCAUAGUCUAGGGAGAGGCGAAAGUCACACAAACCGG [C82U A120G A145C C150G C169U U176A] | 0.0158
15 | GUGCCUUGCGCCGGGAAACCACGCAAGGGAUGGUGUCAAAUUCGGCGAAACCUAAGCGCCCGCCCGGGCGUAUGGCAACGCUGAGCCAAGCUUCGGCGCCUGCGCCGAUGAAGGUGUAGGGACUAGACGGCACCCACCUAAGGCCAACGUUAUGGUGAAGGCAUAGUCAAGGGAGAGGCGAAAGUCACACAAACCGG [C82U A120G A145C C150U C169A U176A] | 0.00991
